# Patent publication US20250049896A1 (Regeneron, published 2025)
# Substitutions are numbered along the chain they refer to.
# B1: 12844B Fab (Fab, V domains shown)
# VH: EVQLVESGGSVVRPGGSLRLSCEASGFTFDDYGMSWVRQDPGKGLEWVSGINWNGDRTNYADSVKGRFIISRDNAKNSVYLQMNSLRAEDSALYHCARDQGLGVAATLDYWGQGTLVTVSS
# VL: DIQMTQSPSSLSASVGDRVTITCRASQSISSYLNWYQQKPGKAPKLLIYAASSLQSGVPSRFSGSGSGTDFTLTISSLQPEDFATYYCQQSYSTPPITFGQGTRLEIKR
# notes: CHO supernatant
# B2: 12808B scFv (VH-VK) (scFv)
# chain: QLQLQESGPGLVKPSETLSLTCTVSGESISSNTYYWGWIRQPPGKGLEWIGSIDYSGTTNYNPSLKSRVTISVDTSRNHFSLRLRSVTAADTAVYYCAREWGNYGYYYGMDVWGQGTTVTVSSDIQMTQSPSSLSASVGDRVTINCRASQGIRNDLGWYQQKPGKAPKRLIYAASSLQSGVPLRFSGSGSGTEFTLTINNLQPEDFATYYCLSHNSYPWTFGQGTKVEIK
# B3: 12841B Fab (Fab, V domains shown)
# VH: EVQLVESGGGLVQPGGSLRLSCAASGFTFSNYWMNWVRQAPGKGLEWVANIKEDGGKKLYVDSVKGRFTISRDNAKNSLFLQMNSLRAEDTAVYYCAREDTTLVVDYYYYGMDVWGQGTTVTVSS
# VL: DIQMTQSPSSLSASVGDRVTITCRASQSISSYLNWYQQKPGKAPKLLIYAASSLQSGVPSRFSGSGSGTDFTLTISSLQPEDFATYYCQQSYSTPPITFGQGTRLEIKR
# notes: CHO supernatant; also called H1H12841B
# B4: 12802B scFv (VK-VH) (scFv)
# scFv: EIVMTQSPATLSVSPGERATLSCRASQSVSINLAWYQQKPGQAPRLLIFVASTRATGIPARFSGSGSGTEFTLTISSLQSEDFATYYCQQYDIWPYTFGQGTKLEIKGGGGSGGGGSGGGGSQVQLVESGGGLVKPGGSLRLSCAASGFTFSDYFMSWIRQAPGKGLEWVSYISSTGSTINYADSVKGRFTISRDNVKNSLYLQMTSLRVEDTAVYYCTRDNWNYEYWGQGTLVTVSS
# notes: CHO supernatant; Vk-3xG4S-Vh
# B5: 31863B scFv (VH-VK) (scFv)
# chain: EVQLVESGGGLVQPGGSLRLSCAASGFTFNSYAMTWVRQAPGKGLEWVSFIGGSTGNTYYAGSVKGRFTISSDNSKKTLYLQMNSLRAEDTAVYYCAKGGAARRMEYFQHWGQGTLVTVSSDIQMTQSPSSLSASIGDRVTITCRASQGISNYLAWYQQKPGKVPKLLIYAASTLQSGVPSRFSGSGSGTDFTLTISSLQPEDVATYYCQNHNSVPLTFGGGTKVEIK
# B6: 12812B Fab (Fab, V domains shown)
# VH: QVQLVQSGAEVKKPGSSVRVSCKASRGTFSSYAISWVRQAPGQGLEWMGGIIPIFGTANYAQKFLARVTITADESTSTAYMELSSLRSEDTAVYYCAREKGWNYFDYWGQGTLVTVSS
# VL: DIQMTQSPPSVSASVGDRVTITCRASQGISSWLAWYQQKPGKAPKLLIYAASSLQSGVPSRFSGSGSGTDFTLTISSLQPEDFATYYCQQANSFPRTFGQGTKVEIKR
# notes: CHO supernatant
# B7: 12835B Fab (Fab, V domains shown)
# VH: EVQLVESGGGLIQPGGSLRLSCEASGFTFRNYEMNWVRQAPGKGLEWVSYISSSGNMKDYAESVKGRFTISRDNVKNSLQLQMNSLRVEDTAVYYCARDEFPYGMDVWGQGTTVTVSS
# VL: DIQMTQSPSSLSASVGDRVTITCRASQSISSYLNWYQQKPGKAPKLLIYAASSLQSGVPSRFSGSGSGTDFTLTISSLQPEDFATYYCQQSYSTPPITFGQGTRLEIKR
# notes: CHO supernatant
# B8: 12843B Fab (Fab, V domains shown)
# VH: EVQLVESGGGLVQPGGSLRLSCAASGFTFNIFEMNWVRQAPGKGLEWISYISSRGTTTYYADSVRGRFTISRDNAKNSLYLQMNSLRAEDTAVYYCARDYEATIPFDFWGQGTLVTVSS
# VL: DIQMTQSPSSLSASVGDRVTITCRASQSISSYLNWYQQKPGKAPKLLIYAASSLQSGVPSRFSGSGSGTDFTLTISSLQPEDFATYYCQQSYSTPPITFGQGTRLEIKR
# notes: CHO supernatant
# B9: 12847B Fab (Fab, V domains shown)
# VH: EVQLVESGGGLVQPGRSLRLSCAASGFTFDDYAMNWVRQAPGKGLEWVSGISWSSGSMDYADSVKGRFTISRDNAKNSLYLQMNSLRTEDTALYYCAKAREVGDYYGMDVWGQGTTVTVSS
# VL: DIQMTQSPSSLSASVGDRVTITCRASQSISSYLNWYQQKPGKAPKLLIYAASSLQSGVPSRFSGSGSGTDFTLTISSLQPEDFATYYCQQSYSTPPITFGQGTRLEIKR
# notes: CHO supernatant
# B10: 12833B Fab (Fab, V domains shown)
# VH: QVQLVESGGGVVQPGRSLRLSCAASGFTFSSFGMHWVRQAPGKGLEWVIFISYDGSDKYYADSVKGRFAISRDSSKNTLYLQMNSLRAEDTAVYYCAKENGILTDSYGMDVWGQGTTVTVSS
# VL: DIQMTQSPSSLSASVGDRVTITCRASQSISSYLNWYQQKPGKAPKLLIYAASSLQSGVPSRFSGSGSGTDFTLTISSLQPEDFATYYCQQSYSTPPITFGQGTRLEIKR
# notes: CHO supernatant
# B11: 12845B Fab (Fab, V domains shown)
# VH: EVQLVESGGGLVQPGGSLRLSCAASGFTVSNYEMNWVRQAPGKGLEWVSYISSSTSNIYYADSVKGRFTISRDNAENSLYLQMNSLRVEDTAVYYCVRDGIVVVPVGRGYYYYGLDVWGQGTTVTVSS
# VL: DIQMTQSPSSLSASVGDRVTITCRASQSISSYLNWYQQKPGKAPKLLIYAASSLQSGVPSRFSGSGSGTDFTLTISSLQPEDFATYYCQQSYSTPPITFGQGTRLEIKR
# notes: CHO supernatant
# B12: 31863B scFv (VK-VH) (scFv)
# scFv: DIQMTQSPSSLSASIGDRVTITCRASQGISNYLAWYQQKPGKVPKLLIYAASTLQSGVPSRFSGSGSGTDFTLTISSLQPEDVATYYCQNHNSVPLTFGGGTKVEIKGGGGSGGGGSGGGGSEVQLVESGGGLVQPGGSLRLSCAASGFTFNSYAMTWVRQAPGKGLEWVSFIGGSTGNTYYAGSVKGRFTISSDNSKKTLYLQMNSLRAEDTAVYYCAKGGAARRMEYFQHWGQGTLVTVSS
# notes: CHO supernatant; Vk-3xG4S-Vh
# B13: 12812B scFv (VK-VH) (scFv)
# scFv: DIQMTQSPPSVSASVGDRVTITCRASQGISSWLAWYQQKPGKAPKLLIYAASSLQSGVPSRFSGSGSGTDFTLTISSLQPEDFATYYCQQANSFPRTFGQGTKVEIKGGGGSGGGGSGGGGSQVQLVQSGAEVKKPGSSVRVSCKASRGTFSSYAISWVRQAPGQGLEWMGGIIPIFGTANYAQKFLARVTITADESTSTAYMELSSLRSEDTAVYYCAREKGWNYFDYWGQGTLVTVSS
# notes: CHO supernatant; Vk-3xG4S-Vh
# B14: 31874B scFv (VK-VH) (scFv)
# scFv: DIQMTQSPSSLSASVGDRVTITCRASQGISNYLAWYQQKPGKVPNLLIYAASTLQSGVPSRFSGSGSGTDFTLTISSLQPEDVATYYCQKYNSAPLTFGGGTKVEIKGGGGSGGGGSGGGGSEVQLVESGGGLVQPGGSLRLSCAASGFAFSSYAMTWVRQAPGKGLEWVSVISGTGGSTYYADSVKGRFTISRDNSKNTLYLQMNSLRAEDTAVYYCAKGGAARRMEYFQYWGQGTLVTVSS
# notes: CHO supernatant; Vk-3xG4S-Vh
# B15: 12839B Fab (Fab, V domains shown)
# VH: QVQLVESGGGVVQPGRSLRLSCAASGFPFSNYVMYWVRQAPGKGLEWVALIFFDGKKNYHADSVKGRFTITRDNSKNMLYLQMNSLRPEDAAVYYCAKIHCPNGVCYKGYYGMDVWGQGTTVTVSS
# VL: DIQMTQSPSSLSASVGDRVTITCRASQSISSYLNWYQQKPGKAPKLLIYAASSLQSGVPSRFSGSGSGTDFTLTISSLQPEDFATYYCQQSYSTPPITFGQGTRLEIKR
# notes: CHO supernatant
# B16: 12848B Fab (Fab, V domains shown)
# VH: EVQLVESGGGLVQPGRSLTLSCAASGFTFDNFGMHWVRQGPGKGLEWVSGLTWNSGVIGYADSVKGRFTISRDNAKNSLYLQMNSLRPEDTALYYCAKDIRNYGPFDYWGQGTLVTVSS
# VL: not shown
# notes: CHO supernatant
# B17: 12816B Fab (Fab, V domains shown)
# VH: QVQLVESGGGLVKPGGSLRLSCAASGFTFSDYYMNWIRQAPGKGLEWVSYISSSGTTIYYADSVKGRFTISRDNAKKSLYLEMNSLRAEDTAVYYCAREGYGNDYYYYGIDVWGQGTTVTVSS
# VL: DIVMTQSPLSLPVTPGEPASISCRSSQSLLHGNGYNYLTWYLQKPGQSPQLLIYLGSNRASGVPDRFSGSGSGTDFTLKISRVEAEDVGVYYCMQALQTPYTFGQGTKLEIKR
# notes: CHO supernatant
# B18: 31874B scFv (VH-VK) (scFv)
# chain: EVQLVESGGGLVQPGGSLRLSCAASGFAFSSYAMTWVRQAPGKGLEWVSVISGTGGSTYYADSVKGRFTISRDNSKNTLYLQMNSLRAEDTAVYYCAKGGAARRMEYFQYWGQGTLVTVSSDIQMTQSPSSLSASVGDRVTITCRASQGISNYLAWYQQKPGKVPNLLIYAASTLQSGVPSRFSGSGSGTDFTLTISSLQPEDVATYYCQKYNSAPLTFGGGTKVEIK
# B19: 12808B scFv (VK-VH) (scFv)
# scFv: DIQMTQSPSSLSASVGDRVTINCRASQGIRNDLGWYQQKPGKAPKRLIYAASSLQSGVPLRFSGSGSGTEFTLTINNLQPEDFATYYCLSHNSYPWTFGQGTKVEIKGGGGSGGGGSGGGGSQLQLQESGPGLVKPSETLSLTCTVSGESISSNTYYWGWIRQPPGKGLEWIGSIDYSGTTNYNPSLKSRVTISVDTSRNHFSLRLRSVTAADTAVYYCAREWGNYGYYYGMDVWGQGTTVTVSS
# notes: CHO supernatant; Vk-3xG4S-Vh
# B20: 12808B Fab (Fab, V domains shown)
# VH: QLQLQESGPGLVKPSETLSLTCTVSGESISSNTYYWGWIRQPPGKGLEWIGSIDYSGTTNYNPSLKSRVTISVDTSRNHFSLRLRSVTAADTAVYYCAREWGNYGYYYGMDVWGQGTTVTVSS
# VL: DIQMTQSPSSLSASVGDRVTINCRASQGIRNDLGWYQQKPGKAPKRLIYAASSLQSGVPLRFSGSGSGTEFTLTINNLQPEDFATYYCLSHNSYPWTFGQGTKVEIKR
# notes: CHO supernatant
# B21: 12802B Fab (Fab, V domains shown)
# VH: QVQLVESGGGLVKPGGSLRLSCAASGFTFSDYFMSWIRQAPGKGLEWVSYISSTGSTINYADSVKGRFTISRDNVKNSLYLQMTSLRVEDTAVYYCTRDNWNYEYWGQGTLVTVSS
# VL: EIVMTQSPATLSVSPGERATLSCRASQSVSINLAWYQQKPGQAPRLLIFVASTRATGIPARFSGSGSGTEFTLTISSLQSEDFATYYCQQYDIWPYTFGQGTKLEIKR
# notes: CHO supernatant
# B22: 31863B Fab (Fab, V domains shown)
# VH: EVQLVESGGGLVQPGGSLRLSCAASGFTFNSYAMTWVRQAPGKGLEWVSFIGGSTGNTYYAGSVKGRFTISSDNSKKTLYLQMNSLRAEDTAVYYCAKGGAARRMEYFQHWGQGTLVTVSS
# VL: DIQMTQSPSSLSASIGDRVTITCRASQGISNYLAWYQQKPGKVPKLLIYAASTLQSGVPSRFSGSGSGTDFTLTISSLQPEDVATYYCQNHNSVPLTFGGGTKVEIKR
# notes: CHO supernatant
# B23: 31874B Fab (Fab, V domains shown)
# VH: EVQLVESGGGLVQPGGSLRLSCAASGFAFSSYAMTWVRQAPGKGLEWVSVISGTGGSTYYADSVKGRFTISRDNSKNTLYLQMNSLRAEDTAVYYCAKGGAARRMEYFQYWGQGTLVTVSS
# VL: B22 VL with I15V, K45N, N90K, H91Y, V94A
# notes: CHO supernatant
# B24: 12834B Fab (Fab, V domains shown)
# VH: QVQLVQSGAEVKKPGASVKVSCKASGYTFTSYGISWVRQAPGQGLEWMGWISVYHGNTNYAQKFQGRVTMTTDTSTSTAYMELRSLRSDDTAVYYCAREGYYDFWSGYYPFDYWGQGTLVTVSS
# VL: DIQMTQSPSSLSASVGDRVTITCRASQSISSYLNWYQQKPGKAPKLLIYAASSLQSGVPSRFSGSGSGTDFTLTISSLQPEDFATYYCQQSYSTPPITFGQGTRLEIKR
# notes: CHO supernatant
# Target: T1, Hmm-hTFRC (REGN2431), monomeric human transferrin receptor ectodomain with N-terminal hexahistidine-myc-myc … (human, UniProt P02786 89-760)
# T1 construct: also called hmm.hTfR(C89-F763); His-myc-myc-hTFRC ecto
# Assay: blocking ELISA, supernatant; Hmm-hTFRC binding to immobilized human holo-Tf
# Description: In the blocking assay, the anti-human Transferrin goat IgG polyclonal antibody (anti-hTf pAb) was passively absorbed at a concentration of 2 micrograms/mL in PBS on a 96-well microtiter plate overnight at 4° C. […] To the same plate, human holo-Tf was then added at a concentration of 1 micrograms/mL in PBS+0.5% BSA for 2 hours at room temperature. […] After a 1-hour incubation, the mixtures were transferred to the human holo-Tf microtiter plates. […] The plates were developed using TMB substrate solution according to the manufacturer's recommended procedure and absorbance at 450 nm was measured on a Victor™ Multilabel Plate Reader.
# The ability of the anti-TfR antibody to block human TFRC binding to human holo-Tf was evaluated using an ELISA-based blocking assay.
# T1 sequence (P02786 other isoform, or with tags, fused parts or gaps): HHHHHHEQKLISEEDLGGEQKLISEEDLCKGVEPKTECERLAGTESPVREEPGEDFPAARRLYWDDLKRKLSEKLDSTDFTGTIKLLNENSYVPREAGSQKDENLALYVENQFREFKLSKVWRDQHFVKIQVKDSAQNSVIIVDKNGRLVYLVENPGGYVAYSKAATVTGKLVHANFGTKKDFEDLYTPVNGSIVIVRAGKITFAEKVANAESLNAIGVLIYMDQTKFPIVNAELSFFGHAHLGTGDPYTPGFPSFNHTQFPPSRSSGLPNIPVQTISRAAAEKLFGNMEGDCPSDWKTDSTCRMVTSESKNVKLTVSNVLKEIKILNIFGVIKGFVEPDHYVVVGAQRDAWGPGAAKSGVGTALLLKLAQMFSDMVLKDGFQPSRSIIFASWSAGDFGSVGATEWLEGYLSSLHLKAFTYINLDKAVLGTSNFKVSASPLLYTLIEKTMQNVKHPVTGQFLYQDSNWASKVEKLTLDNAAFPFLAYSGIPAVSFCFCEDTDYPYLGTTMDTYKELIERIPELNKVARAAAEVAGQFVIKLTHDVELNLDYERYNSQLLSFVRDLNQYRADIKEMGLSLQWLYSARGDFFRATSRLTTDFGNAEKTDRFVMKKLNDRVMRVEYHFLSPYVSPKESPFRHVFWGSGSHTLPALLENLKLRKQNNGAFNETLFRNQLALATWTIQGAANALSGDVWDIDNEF
row,% Blocking,Binder
1,20%,B1
2,19%,B2
3,29%,B3
4,17%,B4
5,13%,B5
6,14%,B6
7,78%,B7
8,10%,B8
9,3%,B9
10,64%,B10
11,11%,B11
12,7%,B12
13,12%,B13
14,-1%,B14
15,13%,B15
16,13%,B16
17,14%,B17
18,14%,B18
19,18%,B19
20,16%,B20
21,15%,B21
22,24%,B22
23,16%,B23
24,-2%,B24
